Results as given in US12318454.
Numbered stars: 1 amine (or outer) side, 2 acyl side, 3 side chain; on linkers, the order of the positions; unused ones are H or OH. Bridge positions count the residues as written; N and C are the ends. Square brackets hold non-standard residues; d marks the D form. Ends that are not written are not given here. * marks the point of attachment. DM4 = maytansinoid, two hindering methyls on maytansine side, COc1cc2cc(c1Cl)N(C)C(=O)C[C@H](OC(=O)[C@H](C)N(C)C(=O)CCC(C)(C)S*)[C@]1(C)O[C@H]1[C@H](C)[C@@H]1C[C@@](O)(NC(=O)O1)[C@H](OC)/C=C/C=C(\C)C2; DM3 = maytansinoid, one hindering methyl on maytansine side, COc1cc2cc(c1Cl)N(C)C(=O)C[C@H](OC(=O)[C@H](C)N(C)C(=O)CCC(C)S*)[C@]1(C)O[C@H]1[C@H](C)[C@@H]1C[C@@](O)(NC(=O)O1)[C@H](OC)/C=C/C=C(\C)C2; disulfide linker, one methyl on bicycle side = not defined here; fluorescein = fluorescein label on the Lys side chain; unhindered disulfide linker = not defined here; 1Nal = N[C@@H](Cc1cccc2ccccc12)C(=O)O; TBMB = c1c(C[*:1])cc(C[*:3])cc1C[*:2]; disulfide linker = not defined here; Tle = CC(C)(C)[C@H](N)C(=O)O; DM1 = maytansinoid; βAla = NCCC(=O)O; Sar = CNCC(=O)O

Columns and labels:
[1] = target: human MT1-MMP hemopexin domain (residues Cys319-Gly511, N-terminally His6-tagged soluble protein) (human) (UniProt P50281); test: FP competition on human MT1-MMP hemopexin domain, tracer 17-69-07-N040 (footnote f)
[2] = target: human MT1-MMP hemopexin domain (residues Cys319-Gly511, N-terminally His6-tagged soluble protein) (human) (UniProt P50281); test: fluorescence polarisation with the fluoresceinated peptide
[3] = target: human MT1-MMP hemopexin domain (residues Cys319-Gly511, N-terminally His6-tagged soluble protein) (human) (UniProt P50281); test: FP competition on human MT1-MMP hemopexin domain (per paragraph 249; tracer not given)
[4] = target: human MT1-MMP hemopexin domain (residues Cys319-Gly511, N-terminally His6-tagged soluble protein) (human) (UniProt P50281); test: FP competition on human MT1-MMP hemopexin domain (footnote a: tracer 17-69-07-N040; footnote e: 17-69-07-N004)
[5] = target: dog MT1-MMP hemopexin domain (dog); test: FP competition, dog MT1-MMP hemopexin domain
[6] = target: human MT1-MMP hemopexin domain (residues Cys319-Gly511, N-terminally His6-tagged soluble protein) (human) (UniProt P50281); test: FP competition, Human/cyno MT1-MMP hemopexin domain

B1: BT17BDC-20 (peptide)
peptide: {DM3-disulfide linker, one methyl on bicycle side}-[βAla][Sar][Sar][Sar][Sar][Sar][Sar][Sar][Sar][Sar][Sar]AC[dA]NE[1Nal][dA]CEDFYD[Tle]C
modifications: linker 13-19-26 via TBMB; reading uncertain; also: exact linker structure not given here
- Kd [1]: 2.95 nM

B2: 17-69-07-N258 (peptide)
peptide: fluorescein-[βAla][Sar][Sar][Sar][Sar][Sar][Sar][Sar][Sar][Sar][Sar]AC[dA]NE[1Nal][dA]CEDFYD[Tle]C
modifications: linker 13-19-26 via TBMB; not fully specified (C-terminus); printed as Fluorescein-(bAla)-Sar10-A-(17-69-07) D-Ala1 1Nal4 D-Ala5 tBuGlyl1
- Kd [2]: 2.2 nM

Binder: Ac-G[Sar][Sar][Sar][Sar][Sar][Sar][Sar][Sar][Sar][Sar]ACYNEFGCEDFYDIC (linker 13-19-26 via TBMB; not fully specified (C-terminus)) [17-69-07-N225]
- Kd [3]: 0.95 nM

B3: BT17BDC-17 (peptide)
peptide: {DM1-unhindered disulfide linker}-[βAla][Sar][Sar][Sar][Sar][Sar][Sar][Sar][Sar][Sar][Sar]AC[dA]NE[1Nal][dA]CEDFYD[Tle]C
modifications: linker 13-19-26 via TBMB; reading uncertain; also: exact linker structure not given here
- Kd [4]: 0.7 nM

B4: BT17BDC-18 (peptide)
peptide: {DM1-disulfide linker, one methyl on bicycle side}-[βAla][Sar][Sar][Sar][Sar][Sar][Sar][Sar][Sar][Sar][Sar]AC[dA]NE[1Nal][dA]CEDFYD[Tle]C
modifications: linker 13-19-26 via TBMB; reading uncertain; also: exact linker structure not given here
- Kd [4]: 0.99 nM

B5: BT17BDC-19 (peptide)
peptide: {DM4-disulfide linker}-[βAla][Sar][Sar][Sar][Sar][Sar][Sar][Sar][Sar][Sar][Sar]AC[dA]NE[1Nal][dA]CEDFYD[Tle]C
modifications: linker 13-19-26 via TBMB; reading uncertain; also: exact linker structure not given here
- Kd [4]: 0.5 nM

Binder: H-G[Sar][Sar][Sar][Sar][Sar][Sar][Sar][Sar][Sar][Sar]ACYNEFGCEDFYDIC (linker 13-19-26 via TBMB; not fully specified (C-terminus)) [17-69-07-N219]
- Kd [5]: 0.9 nM
- Kd [6]: 0.82 nM
- Kd [3]: 0.82 nM
- Kd [4]: 0.82 nM
